# Results reported in the supplement of paper PMC11246515.
# ± gives the standard deviation of the averaged measurements.
# Assay: total protein half-life in vivo (active degradation + dilution); higher = more stable protein
# [1] = wild type E. coli NCM3722, growth: C-lim chemostat, doubling time 3 h
# [2] = E. coli NCM3722 delta-clpP delta-lon delta-hslV, growth: N-lim chemostat, doubling time 6 h
# [3] = E. coli NCM3722 delta-clpP, growth: N-lim chemostat, doubling time 6 h
# [4] = E. coli NCM3722 delta-hslV, growth: N-lim chemostat, doubling time 6 h
# [5] = E. coli NCM3722 delta-smpB, growth: N-lim chemostat, doubling time 6 h
# [6] = wild type E. coli NCM3722, growth: C-lim chemostat, doubling time 6 h
# [7] = wild type E. coli NCM3722, growth: C-lim chemostat, doubling time 12 h
# [8] = wild type E. coli NCM3722, growth: N-lim chemostat, doubling time 6 h
# [9] = wild type E. coli NCM3722, growth: N-lim chemostat, doubling time 12 h
# [10] = wild type E. coli NCM3722, growth: P-lim chemostat, doubling time 6 h
# [11] = wild type E. coli NCM3722, growth: P-lim chemostat, doubling time 12 h
# [12] = E. coli NCM3722 delta-lon, growth: N-lim chemostat, doubling time 6 h
Sequence,total protein half-life in vivo [1],total protein half-life in vivo [2],total protein half-life in vivo [3],total protein half-life in vivo [4],total protein half-life in vivo [5],total protein half-life in vivo [6],total protein half-life in vivo [7],total protein half-life in vivo [8],total protein half-life in vivo [9],total protein half-life in vivo [10],total protein half-life in vivo [11],total protein half-life in vivo [12]
MRSLADFEFNKAPLCEGMILACEAIRRDFPSQDVYDELERLVSLAKEEISQLLPLEEQLEKLIALFYGDWGFKASRGVYRLSDALWLDQVLKNRQGSAVSLGAVLLWVANRLDLPLLPVIFPTQLILRIECPDGEIWLINPFNGESLSEHMLDVWLKGNISPSAELFYEDLDEADNIEVIRKLLDTLKASLMEENQMELALRTSEALLQFNPEDPYEIRDRGLIYAQLDCEHVALNDLSYFVEQCPEDPISEMIRAQINNIAHKHIVLH [P0AGM5],0.281 h,,,,,,,,,,,
MAGNTIGQLFRVTTFGESHGLALGCIVDGVPPGIPLTEADLQHDLDRRRPGTSRYTTQRREPDQVKILSGVFEGVTTGTSIGLLIENTDQRSQDYSAIKDVFRPGHADYTYEQKYGLRDYRGGGRSSARETAMRVAAGAIAKKYLAEKFGIEIRGCLTQMGDIPLDIKDWSQVEQNPFFCPDPDKIDALDELMRALKKEGDSIGAKVTVVASGVPAGLGEPVFDRLDADIAHALMSINAVKGVEIGDGFDVVALRGSQNRDEITKDGFQSNHAGGILGGISSGQQIIAHMALKPTSSITVPGRTINRFGEEVEMITKGRHDPCVGIRAVPIAEAMLAIVLMDHLLRQRAQNADVKTDIPRW,3.41 ± 0.23 h,5.73 ± 0.43 h,5.29 ± 0.1 h,5.199 ± 0.021 h,4.78 ± 0.14 h,5.92 ± 0.13 h,12 ± 0.84 h,5.09 ± 0.23 h,9.61 ± 0.79 h,6.51 ± 0.34 h,12.6 ± 1.4 h,
MIEILHEYWKPLLWTDGYRFTGVAITLWLLILSVVIGGVLALFLAIGRVSSNKYIQFPIWLFTYIFRGTPLYVQLLVFYSGMYTLEIVKGTEFLNAFFRSGLNCTVLALTLNTCAYTTEIFAGAIRSVPHGEIEAARAYGFSTFKMYRCIILPSALRIALPAYSNEVILMLHSTALAFTATVPDLLKIARDINAATYQPFTAFGIAAVLYLIISYVLISLFRRAEKRWLQHVKPSSTH [P0AEU3],> 4 h,> 8 h,6.1106 ± 0.00052 h,6.07 h,7.16 ± 0.54 h,5.71 ± 0.54 h,11.3 ± 1.3 h,6.75 ± 0.49 h,11 ± 3.6 h,6.32 h,11.92 ± 0.04 h,6.71 ± 0.91 h
MYTLNWQPPYDWSWMLGFLAARAVSSVETVADSYYARSLAVGEYRGVVTAIPDIARHTLHINLSAGLEPVAAECLAKMSRLFDLQCNPQIVNGALGRLGAARPGLRLPGCVDAFEQGVRAILGQLVSVAMAAKLTARVAQLYGERLDDFPEYICFPTPQRLAAADPQALKALGMPLKRAEALIHLANAALEGTLPMTIPGDVEQAMKTLQTFPGIGRWTANYFALRGWQAKDVFLPDDYLIKQRFPGMTPAQIRRYAERWKPWRSYALLHIWYTEGWQPDEA,2.32 ± 0.17 h,6.48 h,,,,2.85 h,4.47 h,1.34 h,1.62 h,3.45 h,,
MRYSKLTMLIPCALLLSACTTVTPAYKDNGTRSGPCVEGGPDNVAQQFYDYRILHRSNDITALRPYLSDKLATLLSDASRDNNHRELLTNDPFSSRTTLPDSAHVASASTIPNRDARNIPLRVDLKQGDQGWQDEVLMIQEGQCWVIDDVRYLGGSVHATAGTLRQSIENR,2.89 ± 0.099 h,,5.61 ± 1.2 h,6.1159 ± 0.0003 h,6.06 ± 0.54 h,6.3 ± 0.064 h,12.9 ± 1 h,6.03 ± 0.21 h,12.6 ± 1.1 h,6.22 ± 0.44 h,13.7 ± 0.35 h,
MRHCGWLLGLLSLFSLATHASDWQEIKNEAKGQTVWFNAWGGDTAINRYLDWVSGEMKTHYAINLKIVRLADAADAVKRIQTEAAAGRKTGGSVDLLWVNGENFRTLKEANLLQTGWAETLPNWRYVDTQLPVREDFSVPTQGAESPWGGAQLTFIARRDVTPQPPQTPQALLEFAKANPGTVTYPRPPDFTGTAFLEQLLIMLTPDPAALKEAPDDATFARVTAPLWQYLDVLHPYLWREGKDFPPSPARMDALLKAGTLRLSLTFNPAHAQQKIASGDLPASSYSFGFREGMIGNVHFVTIPANANASAAAKVVANFLLSPDAQLRKADPAVWGDPSVLDPQKLPDGQRESLQSRMPQDLPPVLAEPHAGWVNALEQEWLHRYGTH,3.45 ± 0.33 h,5.63 ± 0.51 h,6.09 ± 0.099 h,6.22 ± 0.27 h,5.628 ± 0.055 h,6.17 ± 0.22 h,13.7 ± 0.41 h,6.027 ± 0.021 h,13.4 ± 0.98 h,6.54 ± 0.45 h,12.3 ± 1.5 h,6.17 ± 0.65 h
MDALSRLLMLNAPQGTIDKNCVLGSDWQLPHGAGELSVIRWHALTQGAAKLEMPTGEIFTLRPGNVVLLPQNSAHRLSHVDNESTCIVCGTLRLQHSARYFLTSLPETLFLAPVNHSVEYNWLREAIPFLQQESRSAMPGVDALCSQICATFFTLAVREWIAQVNTEKNILSLLLHPRLGAVIQQMLEMPGHAWTVESLASIAHMSRASFAQLFRDVSGTTPLAVLTKLRLQIAAQMFSRETLPVVVIAESVGYASESSFHKAFVREFGCTPGEYRERVRQLAP,,,,6.33 h,5.156 ± 0.014 h,5.12 ± 3.4 h,11.8 ± 2.5 h,5.92 ± 0.51 h,,5.4 ± 0.16 h,12.4 ± 1.3 h,6.04 h
